# According to patent US11098124B2, “CD31 shed as a molecular target for imaging of inflammation” (INSTITUT NATIONAL DE LA SANTE ET DE LA RECHERCHE MEDICALE …, priority 2016, dated 2021):
# Entries after “also recorded” stand apart in the source; their conditions may differ. Where a SMILES comes first, the peptide text is derived from it. [ ]: non-standard residue; d: D form. The star is where a group is joined. ξ: configuration not given here. HYNIC = NNc1ccc(C(=O)*)cn1; PEG3 = NCCOCCOCCOCCC(=O)O; ξK = NCCCCC(N)C(=O)O
# Assays:
# [1] = test system: abdominal aorta aneurysm (AAA) rat model of vascular inflammation; assay: SPECT/CT imaging in abdominal aorta aneurysm (AAA) model; assay type: in vivo; settings: for Pattern of biodistribution / blood clearance route (in words): AAA rat, 74 MBq i.v., SPECT/CT
# From the text: Rat model of vascular inflammation that has been set up at the laboratory: the experimental abdominal aorta aneurysm (AAA) induced by local infusion of elastase and followed by intravenous injection of a periodontal bacterium present in human AAA (Porphyromonas gingivalis) and known to induce AAA inflammation (Delbosc et al., 2011, PLoS ONE 6(4): e18679. doi:10.1371/journal.pone.0018679).
# Immediately after intravenous injection via the penis vein of 74 MBq of radiolabelled HYNIC-P8RI (obtained using Tricine/EDDA), sequential whole-body acquisitions (every 10 minutes for the first hour) were performed with a hybrid SPECT/CT camera (NanoSPECT/CT, Bioscan Inc.) dedicated to small animals. 10. […] Results 1. Radiolabeling 6-Hydrazinopyridine-3-carboxylic acid (HYNIC) was coupled to the N-terminal amino-acid of the P8RI peptide via a 3(PEG) spacer to obtain HYNIC-P8RI. HYNIC-P8RI was then labeled at high specific activities (>71 GBq/μmol) using tricine, EDDA or Tricine/EDDA as coligands. The tricine/EDDA exchange labeling strategy was chosen because of high labeling yield and resulting in a single major specie as analyzed by HPLC (see FIG. 1).
# [2] = 37° C.
# Method: (§1) A Dionex Ultimate 3000 system coupled to a Berthold radiometric detector was used for RP-HPLC analysis. A ACE 3 C18, 3μ, 100 Å, 150×4.6 mm column, at a flow rate of 1 mL/min and with UV detection at 220 nm, was employed with the following mobile phases, A: 0.1% TFA/water), B Acetonitrile (ACN). Gradient was: 0-2 min 23% B, 2-20 min 23-50% B, 20-23 min 50-100% B, 23-25 min 100-23% B, 25-28 min 23% B. 2.2 Thin Layer Chromatography TLC was performed using a radiochromatogaph (MiniGita, Raytest, Germany). Stationary phase was silica gel (ITLC-SG, Agilent technologies, USA) and different mobile phases were employed. MEK was used to determine the amount of free ^99mTcO4^− (Rf=1), Anticoagulant Citrate Dextrose Solution (ACD-A, Baxter International, USA) to determine non-peptide-bound ^99mTc-coligands and ^99mTcO4^− (Rf=1), 60% ACN for ^99mTc-colloid (Rf=0). […] In Vitro Stability Study Stability of ^99mTc complexes was assessed in fresh human plasma at 37° C. after 0 min, 30 min, 1 hour, 2 hours and 4 hours of incubation at a concentration of 100 μmol/mL. […] Supernatants were collected and filtered (Millex-GV 0.22 μm PVDF, Merck Millipore, Germany) then assessed by radio-HPLC. […] After one hour, rat was sacrificed and urine was directly collected from the bladder using a syringe and analyzed by radio-HPLC after a 0.22 μm filtration (Millex-GV 0.22 μm PVDF, Merck Millipore, Germany). […]
# [3] = male wistar rat, 74 MBq, urine from bladder 1 hour after injection; listed as [99mTc]EDDA/HYNIC-P8RI
# Method: as §1
# [4] = test system: plasma proteins; assay: in vitro; settings: human, fresh human plasma
# Method: as §1
structure (smiles),measurement,setting,value
"CC(C)C[C@@H](NC(=O)[C@@H](C)NC(=O)[C@H]1CCCN1C(=O)[C@@H](Cc1c[nH]c2ccccc12)NC(=O)C(CCCCN)NC(=O)CCOCCOCCOCCNC(=O)c1ccc(NN)nc1)C(=O)N[C@H](Cc1ccccc1)C(=O)N[C@@H](C(=O)N[C@H](CCCNC(=N)N)C(=O)O)C(C)C (stereo partly drawn) [99mTc-HYNIC-P8RI, metal not drawn] ({HYNIC-PEG3}-[ξK][dW][dP][dA][dL][dF][dV][dR]-OH)",Pattern of biodistribution / blood clearance route (in words),[1],almost exclusive renal uptake and excretion
same,Pattern of biodistribution / blood clearance route (in words),[1]; listed as [99mTc]EDDA/HYNIC-P8RI,tracer elimination via kidneys; also recorded: almost exclusively renal
same,Blood clearance rate (in words),"[1]; in vivo, rat",rapid blood clearance
same,Time of peak activity in kidneys and bladder after injection,"[1]; rat, i.v. injection",1 h
same,RCP (radiochemical purity) after incubation in human plasma,"[2]; 4 h of incubation, tricine/EDDA coligands",> 89%
same,In vitro stability in human plasma (in words),"[2]; up to 4 h, radio-HPLC, listed as [99mTc]EDDA/HYNIC-P8RI",no significant release of degraded radiolabelled peptide
same,In vivo stability: species excreted in rat urine by radio-HPLC (in words),[3],unaltered form of the peptide
same,fraction unbound at 4 h,[4],> 0.95
